Reference: paper PMC1182371, “Zinc-finger domains of the transcriptional repressor KLF15 bind multiple sites in rhodopsin and IRBP promoters including the CRS-1 and G-rich repressor elements”

Target: KLF15-ZF-GST (human, UniProt Q9UIH9 294-416)
Test: competition; 50x, 250x vs bRho29 probe; also hRho29 probe (data not shown); EMSA: 4 mM HEPES, 5 mM EGTA, 100 mM KCl, 0.25 mM ZnCl2, 0.02% NP40, 0.1 M DTT, 4% glycerol, 90-120 min on ice, pH not stated; footprinting: same buffer, DNase I at room temperature 1 min
Conditions: protein: recombinant; tags: N-terminal GST; label: unlabeled; GG ends end-filled

KLF15-ZF-GST, sequence (Q9UIH9 294-416): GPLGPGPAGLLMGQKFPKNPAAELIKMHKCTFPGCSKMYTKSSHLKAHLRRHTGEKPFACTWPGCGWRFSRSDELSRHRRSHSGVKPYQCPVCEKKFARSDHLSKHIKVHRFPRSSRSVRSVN

| Binder | binding result |
| --- | --- |
| IRBP2 (dsDNA) DNA 1: GGACTTGTCAGGGCCTTTA DNA 2: TAAAGGCCCTGACAAGTCC | no binding |
| IRBP1 (dsDNA) DNA 1: GGACAGGATTAAAGGCTTACTGGAG DNA 2: CTCCAGTAAGCCTTTAATCCTGTCC | no binding |
